Test results: publication PMC10457771
Where “and” joins values, the source holds several entries; their conditions need not be identical. Equal values may be shown once.

Columns and labels:
[1] = molecular target: central baseplate organization protein, gp11 (Vibrio phage XM1); assay: cryo-EM structure; purified XM1 virions in SM buffer; 6-fold-symmetric reconstruction of the distal part of the extended tail (baseplate, part of tail tube and sheath), 3.2Å; interfaces analysed with PISA
[2] = molecular target: collar spike protein, gp40 (Vibrio phage XM1); assay: cryo-EM structure; purified XM1 virions in SM buffer; 6-fold-symmetric reconstruction of the portal and neck region and 12-fold-symmetric reconstruction of the portal, 3.6Å; interfaces analysed with PISA
[3] = molecular target: dodecameric head completion protein, gp1 (Vibrio phage XM1); assay: as above
[4] = molecular target: hexameric head completion protein, gp4 (Vibrio phage XM1); assay: as above
[5] = molecular target: major capsid protein (MCP), gp54 (Vibrio phage XM1); assay: cryo-EM structure; purified XM1 virions in SM buffer; icosahedrally averaged reconstruction of the capsid, 3.2Å
[6] = molecular target: minor capsid protein (decoration protein, Dec), gp53 (Vibrio phage XM1); assay: as above
[7] = molecular target: portal protein, gp49 (Vibrio phage XM1); assay: cryo-EM structure; purified XM1 virions in SM buffer; 6-fold-symmetric reconstruction of the portal and neck region and 12-fold-symmetric reconstruction of the portal, 3.6Å; interfaces analysed with PISA
[8] = molecular target: tail sheath protein, gp6 (Vibrio phage XM1); assay: cryo-EM structure; purified XM1 virions in SM buffer; 6-fold-symmetric reconstruction of the distal part of the extended tail (baseplate, part of tail tube and sheath), 3.2Å; interfaces analysed with PISA
[9] = molecular target: tail sheath protein, gp6 (Vibrio phage XM1); assay: cryo-EM structure; empty XM1 particles with contracted tail sheath (post-infection form); 6-fold-symmetric reconstruction, 9.1Å; models of the extended state fitted (Situs ddforge, Coot)
[10] = molecular target: tail terminator protein, gp5 (Vibrio phage XM1); assay: cryo-EM structure; purified XM1 virions in SM buffer; 6-fold-symmetric reconstruction of the portal and neck region and 12-fold-symmetric reconstruction of the portal, 3.6Å; interfaces analysed with PISA
[11] = molecular target: tail tube protein, gp7 (Vibrio phage XM1); assay: cryo-EM structure; purified XM1 virions in SM buffer; 6-fold-symmetric reconstruction of the distal part of the extended tail (baseplate, part of tail tube and sheath), 3.2Å; interfaces analysed with PISA

central baseplate organization protein, gp11 (natural protein)
stoichiometry N [1]: 6

collar spike protein, gp40 (natural protein)
stoichiometry N [2]: 3

dodecameric head completion protein, gp1 (natural protein)
stoichiometry N [3]: 12

hexameric head completion protein, gp4 (natural protein)
stoichiometry N [4]: 6

major capsid protein (MCP), gp54 (natural protein)
stoichiometry N [5]: 6 and 5

minor capsid protein (decoration protein, Dec), gp53 (natural protein)
stoichiometry N [6]: 3

portal protein, gp49 (natural protein)
stoichiometry N [7]: 12

tail sheath protein, gp6 (natural protein)
stoichiometry N [8]: 6
stoichiometry N [9]: 6

tail terminator protein, gp5 (natural protein)
stoichiometry N [10]: 6

tail tube protein, gp7 (natural protein)
stoichiometry N [11]: 6
